Ends that are not written are not given here.
These binders were tested against T1, Growth and Differentiation Factor 15 (GDF15) (UniProt Q99988 197-308, limits assumed) (assay: ELISA, peptide on streptavidin plate, ligand 100 ng/ml).
T1 construct: also called MIC-1; MIC1
T1 sequence (looked up): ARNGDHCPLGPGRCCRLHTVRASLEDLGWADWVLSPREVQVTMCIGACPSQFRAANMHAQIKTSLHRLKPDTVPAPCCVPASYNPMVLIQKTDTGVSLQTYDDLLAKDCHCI
Procedure: (§1) Biotinylated synthetic peptide fragments from CLPTM1 (JPT peptides, Germany) were immobilized in a streptavidin 96 well plate (#15500 Pierce) at 1 μM in PBS over night at +4° C. Plate was then washed 4 times in 300 μl PBS with 0.05% tween-20 (wash buffer). The plate was then blocked with PBS 1% BSA and 0.05% tween-20 (blocking buffer) for 1.5 hours at room temperature, then washed 4 times in wash buffer. Ligands GDF15, TGFb1, TGFb2 and TGFb3 (Abcam) were added in blocking buffer at 100 ng/ml and incubated at room temperature for 2 hours. The plate was then washed 8 times in 300 μL wash buffer with 2× NaCl. An anti-GDF15 antibody was added at 1 μg/ml (R&D Systems, goat polyclonal) or a pan-specific anti-TGFb antibody (R&D Systems, mouse 1 D11), and the plate incubated in blocking buffer for 1 hour at room temperature followed by washing with 4×300 μl wash buffer. HAF017 anti-goat-HRP antibody (to detect the anti-GDF15 antibody) or Santa Cruz sc-2005 Goat anti-mouse-HRP (to detect the pan-specific anti-TGFb antibody) was added and the plate incubated for 1 hour in blocking buffer followed by a wash. TMB substrate was added and stopped after 15 minutes with H₂SO₄. OD 450-620 was measured in an ELISA reader.

First: LWRWQLYAAQSTKSPWNFLGG (also: biotinylated, site not given here) [CLPTM1 peptide fragment of SEQ ID NO: 26]
Second: YPINESLASLPLRVSFCPLSG (also: biotinylated, site not given here, also called peptide 20) [CLPTM1 peptide fragment of SEQ ID NO: 27]
The “ELISA OD450” value of the first is lower: 0.033 OD450 for the first, 0.22 OD450 for the second.

Going from GDYYPIIYFNDYWNLQKDYYG (also: biotinylated, site not given here, also called peptide 21) [CLPTM1 peptide fragment of SEQ ID NO: 28] to WQVIKGVLFRIFIIWAISSWG (also: biotinylated, site not given here) [CLPTM1 peptide fragment of SEQ ID NO: 29], the “ELISA OD450” value falls from 0.507 OD450 to 0.023 OD450.

Compared with RNLFPKDTLMNLHVYISEHEG (also: biotinylated, site not given here) [CLPTM1 peptide fragment of SEQ ID NO: 30], FTDFNATSALFWEQHDLVYGG (also: biotinylated, site not given here) [CLPTM1 peptide fragment of SEQ ID NO: 31] is higher in “ELISA OD450” value: 0.055 OD450 for the first, 0.061 OD450 for the second.

Each binder was assayed against T2, transforming growth factor-beta 1 (TGF-β1) (UniProt P01137 279-390) in the same assay as above.
T2 construct: also called TGFb1; TGFB1
Procedure: as §1

T2 sequence (P01137 279-390 limits assumed): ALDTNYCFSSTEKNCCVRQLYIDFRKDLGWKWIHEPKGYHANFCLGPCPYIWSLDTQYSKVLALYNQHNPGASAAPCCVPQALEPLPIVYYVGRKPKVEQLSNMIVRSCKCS

First: LWRWQLYAAQSTKSPWNFLGG (also: biotinylated, site not given here) [CLPTM1 peptide fragment of SEQ ID NO: 26]
Second: YPINESLASLPLRVSFCPLSG (also: biotinylated, site not given here, also called peptide 20) [CLPTM1 peptide fragment of SEQ ID NO: 27]
The “ELISA OD450” value of the first is lower: 0.013 OD450 for the first, 0.043 OD450 for the second.

Going from GDYYPIIYFNDYWNLQKDYYG (also: biotinylated, site not given here, also called peptide 21) [CLPTM1 peptide fragment of SEQ ID NO: 28] to WQVIKGVLFRIFIIWAISSWG (also: biotinylated, site not given here) [CLPTM1 peptide fragment of SEQ ID NO: 29], the “ELISA OD450” value falls from 1.54 OD450 to 0.01 OD450.

Compared with RNLFPKDTLMNLHVYISEHEG (also: biotinylated, site not given here) [CLPTM1 peptide fragment of SEQ ID NO: 30], FTDFNATSALFWEQHDLVYGG (also: biotinylated, site not given here) [CLPTM1 peptide fragment of SEQ ID NO: 31] is higher in “ELISA OD450” value: 0.015 OD450 for the first, 0.032 OD450 for the second.

What follows are binders tested against T3, transforming growth factor-beta 2 (TGF-β2) (UniProt P61812 303-414) in the same assay as above.
T3 construct: also called TGFb2; TGFB2
T3 sequence (looked up): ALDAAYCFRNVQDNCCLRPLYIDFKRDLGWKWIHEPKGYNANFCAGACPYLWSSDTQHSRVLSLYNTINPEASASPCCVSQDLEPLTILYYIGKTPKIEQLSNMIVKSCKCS
Procedure: as §1

First: LWRWQLYAAQSTKSPWNFLGG (also: biotinylated, site not given here) [CLPTM1 peptide fragment of SEQ ID NO: 26]
Second: YPINESLASLPLRVSFCPLSG (also: biotinylated, site not given here, also called peptide 20) [CLPTM1 peptide fragment of SEQ ID NO: 27]
The “ELISA OD450” value of the first is lower: 0.008 OD450 for the first, 0.025 OD450 for the second.

Compared with GDYYPIIYFNDYWNLQKDYYG (also: biotinylated, site not given here, also called peptide 21) [CLPTM1 peptide fragment of SEQ ID NO: 28], WQVIKGVLFRIFIIWAISSWG (also: biotinylated, site not given here) [CLPTM1 peptide fragment of SEQ ID NO: 29] is lower in “ELISA OD450” value: 0.164 OD450 for the first, 0.006 OD450 for the second.

Compared with RNLFPKDTLMNLHVYISEHEG (also: biotinylated, site not given here) [CLPTM1 peptide fragment of SEQ ID NO: 30], FTDFNATSALFWEQHDLVYGG (also: biotinylated, site not given here) [CLPTM1 peptide fragment of SEQ ID NO: 31] is higher in “ELISA OD450” value: 0.009 OD450 for the first, 0.014 OD450 for the second.

What follows are binders tested against T4, transforming growth factor-beta 3 (TGF-β3) (UniProt P10600 301-412) in the same assay as above.
T4 construct: also called TGFb3; TGFB3
T4 sequence (looked up): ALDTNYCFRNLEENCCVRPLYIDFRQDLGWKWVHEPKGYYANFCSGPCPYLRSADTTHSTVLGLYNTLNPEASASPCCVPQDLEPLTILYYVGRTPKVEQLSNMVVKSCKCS
Procedure: as §1

Going from LWRWQLYAAQSTKSPWNFLGG (also: biotinylated, site not given here) [CLPTM1 peptide fragment of SEQ ID NO: 26] to YPINESLASLPLRVSFCPLSG (also: biotinylated, site not given here, also called peptide 20) [CLPTM1 peptide fragment of SEQ ID NO: 27], the “ELISA OD450” value rises from 0.011 OD450 to 0.018 OD450.

Compared with GDYYPIIYFNDYWNLQKDYYG (also: biotinylated, site not given here, also called peptide 21) [CLPTM1 peptide fragment of SEQ ID NO: 28], WQVIKGVLFRIFIIWAISSWG (also: biotinylated, site not given here) [CLPTM1 peptide fragment of SEQ ID NO: 29] is lower in “ELISA OD450” value: 0.151 OD450 for the first, 0.019 OD450 for the second.

Going from RNLFPKDTLMNLHVYISEHEG (also: biotinylated, site not given here) [CLPTM1 peptide fragment of SEQ ID NO: 30] to FTDFNATSALFWEQHDLVYGG (also: biotinylated, site not given here) [CLPTM1 peptide fragment of SEQ ID NO: 31], the “ELISA OD450” value falls from 0.041 OD450 to 0.029 OD450.
